{"source": "patent US20250017964A1", "about": "“ENGINEERING OR INDUCING PDGF AND/OR PDGFR SIGNALING TO ENHANCE NK CELL THERAPY” (City of Hope, priority 2021, published 2025)", "key": {"[1]": {"system": "PDGFRβ expression in human NK cells", "experiment": "Cytokine-induced PDGFRβ expression in purified human NK cells, flow cytometry", "type": "cell-based", "conditions": "cytokine 10 ng/ml, 24 h; IL-15 effect dose- and time-dependent", "description": "Data shown are the percentages of PDGFRβ^+ NK cells among total NK cells (n=5). […] Bar=20 μm. […] Data represent three independent experiments. Data shown are means SD.\n(§1) FIGS. 7A-7F. […] Data shown are representative histograms and mean fluorescence intensity (MFI) of PDGFRα. […] Expression levels of PDGFRβ were examined by flow cytometry (n=6). […] Data shown are the percentages of PDGFRβ^+ NK cells among total NK cells (n=5). […] Data shown are representative histograms with MFI of PDGFRβ expression. (F) Expression levels of PDGFRβ on NK cells from IL-15 transgenic (Tg) mice were determined by flow cytometry. Data shown are representative histograms. Data represent three independent experiments.\nNK cells were cultured in RPMI 1640 with 10% heat-inactivated FBS (Gibco) at 37° C. in a 5% CO2 humidified incubator. For NK cell transduction, PDGFRB cDNA ORF clone (Cat: HG10514-G) was purchased from Sino Biological and cloned into pCDH-CMV-MCS-EF1-copGFP lentivirus vector (System Biosciences). To produce lentivirus, we transfected the lentiviral transfer vector DNA, together with psPAX2 packaging (Addgene) and pMD2.G envelope plasmid DNA (Addgene), into HEK293T cells; using a polyethyenimine (PEI) transfection protocol (Polysciences). Concentrated lentivirus was added to primary NK cells cultured in RPMI 1640 medium supplemented with 10% FCS and 10 jig/mL polybrene with 2,000×g centrifugation for 2 h. […]"}, "murine NK cells": {"system": "murine NK cells", "experiment": "PDGFRβ expression in murine splenic NK cells, flow cytometry", "type": "cell-based, mouse", "conditions": "splenic NK cells of C57BL/6 mice, mouse cytokines 10 ng/ml, 24 h", "protocol": "as §1\nMouse NK cells were isolated from the spleen of C57BL/6J or IL-15 transgenic mice, using the EasySep Mouse NK Cell Isolation Kit ([…] Technologies) as previously described (11).\nCells were stained with the indicated cell-surface markers and/or fixed/permeabilized using a Fixation/Permeabilization Kit (eBioscience). For intracellular staining of IFN-γ and PDGF-D, 5 μg/ml Brefeldin A (BioLegend) was added for 4 h before cell harvest. Intracellular staining of Ki67 was performed by fixing and permeabilizing with the Foxp3/Transcription Factor Staining Kit (eBioscience). […] Data were analyzed using NovoExpress software (Agilent Technologies)."}}, "data": [{"molecule": "IL-12: recombinant human IL-12 p70 (200-12); recombinant murine IL-12 in the mouse NK cell test (protein, UniProt P29459 23-219; P29460 23-328, looked up, p70 heterodimer, recombinant human IL-12 p70 (200-12); recombinant murine IL-12 in the mouse NK cell test) Interleukin-12 subunit alpha: RNLPVATPDPGMFPCLHHSQNLLRAVSNMLQKARQTLEFYPCTSEEIDHEDITKDKTSTVEACLPLELTKNESCLNSRETSFITNGSCLASRKTSFMMALCLSSIYEDLKMYQVEFKTMNAKLLMDPKRQIFLDQNMLAVIDELMQALNFNSETVPQKSSLEEPDFYKTKIKLCILLHAFRIRAVTIDRVMSYLNAS Interleukin-12 subunit beta: IWELKKDVYVVELDWYPDAPGEMVVLTCDTPEEDGITWTLDQSSEVLGSGKTLTIQVKEFGDAGQYTCHKGGEVLSHSLLLLHKKEDGIWSTDILKDQKEPKNKTFLRCEAKNYSGRFTCWWLTTISTDLTFSVKSSRGSSDPQGVTCGAATLSAERVRGDNKEYEYSVECQEDSACPAAEESLPIEVMVDAVHKLKYENYTSSFFIRDIIKPDPPKNLQLKPLKNSRQVEVSWEYPDTWSTPHSYFSLTFCVQVQGKSKREKKDRVFTDKTSATVICRKNASISVRAQDRYYSSSWSEWASVPCS", "values": [{"measurement": "PDGFRβ expression", "setting": "[1]", "result": "ineffective"}, {"measurement": "PDGFRβ expression in murine NK cells", "setting": "murine NK cells", "result": "did not express PDGFRβ"}]}]}
